Results on 18 variants are retold here after the RNAGym collection of RNA variant scans (doi:10.1021/acssynbio.7b00057).

B1: Pistol ribozyme (parent)
chain: GGGUCGUUGUUCCAUAAUCGCGUGGAUAUGGCACGCAAGUUUCUACCGGGCACCGUAAAUGUCCGACUGGAGCCGUUCGGGCGGCUAUAAACAGACCUCAGGCCCGAAGCGUGGCGGCACCUGCCGCCGGUGGUAAAAAAGAUCGGAAGAGCACACGUCU

The variants in the series derive from B1. The experiment in a line: aptazyme ON/OFF ratio, guanine; higher = stronger switching; co-transcriptional cleavage with and without guanine.
In the case of GGGUCGUAUUAAAAUAAUCGCGUGGAUAUGGCACGCAAGUUUCUACCGGGCACCGUAAAUGUCCGACUGGAGCCGUUCGGGCGGCUAUAAACAGACCUCAGGCCCGAAGCGUGGCGGCACCUGCCGCCGGUGGUAAAAAAGAUCGGAAGAGCACACGUCU [U8A G9U U11A C12A C13A], the “aptazyme ON/OFF ratio” value turned out to be 1.22.

On to GGGUCGGGGGGCCAUAAUCGCGUGGAUAUGGCACGCAAGUUUCUACCGGGCACCGUAAAUGUCCGACUGGAGCCGUUCGGGCGGCUAUAAACAGACCUCAGGCCCGAAGCGUGGCGGCACCUGCCGCCGGUGGUAAAAAAGAUCGGAAGAGCACACGUCU [U7G U8G U10G U11G], for which the “aptazyme ON/OFF ratio” value was 1.39.

In the case of GGGUCGCCGCUCGAUAAUCGCGUGGAUAUGGCACGCAAGUUUCUACCGGGCACCGUAAAUGUCCGACUGGAGCCGUUCGGGCGGCUAUAAACAGACCUCAGGCCCGAAGCGUGGCGGCACCUGCCGCCGGUGGUAAAAAAGAUCGGAAGAGCACACGUCU [U7C U8C U10C C13G], the “aptazyme ON/OFF ratio” value is 1.24.

In the case of GGGUCGUAGUCAGAUAAUCGCGUGGAUAUGGCACGCAAGUUUCUACCGGGCACCGUAAAUGUCCGACUGGAGCCGUUCGGGCGGCUAUAAACAGACCUCAGGCCCGAAGCGUGGCGGCACCUGCCGCCGGUGGUAAAAAAGAUCGGAAGAGCACACGUCU [U8A U11C C12A C13G], the “aptazyme ON/OFF ratio” value is 1.17.

Regarding GGGUCGGAUGCAUAUAAUCGCGUGGAUAUGGCACGCAAGUUUCUACCGGGCACCGUAAAUGUCCGACUGGAGCCGUUCGGGCGGCUAUAAACAGACCUCAGGCCCGAAGCGUGGCGGCACCUGCCGCCGGUGGUAAAAAAGAUCGGAAGAGCACACGUCU [U7G U8A G9U U10G U11C C12A C13U], the “aptazyme ON/OFF ratio” value stood at 1.11.

In the case of GGGUCGCAAGUCGAUAAUCGCGUGGAUAUGGCACGCAAGUUUCUACCGGGCACCGUAAAUGUCCGACUGGAGCCGUUCGGGCGGCUAUAAACAGACCUCAGGCCCGAAGCGUGGCGGCACCUGCCGCCGGUGGUAAAAAAGAUCGGAAGAGCACACGUCU [U7C U8A G9A U10G C13G], the “aptazyme ON/OFF ratio” value was 1.08.

As for GGGUCGUUUAUGCAUAAUCGCGUGGAUAUGGCACGCAAGUUUCUACCGGGCACCGUAAAUGUCCGACUGGAGCCGUUCGGGCGGCUAUAAACAGACCUCAGGCCCGAAGCGUGGCGGCACCUGCCGCCGGUGGUAAAAAAGAUCGGAAGAGCACACGUCU [G9U U10A C12G], the “aptazyme ON/OFF ratio” value turned out to be 1.41.

Consider GGGUCGCAGUGUGAUAAUCGCGUGGAUAUGGCACGCAAGUUUCUACCGGGCACCGUAAAUGUCCGACUGGAGCCGUUCGGGCGGCUAUAAACAGACCUCAGGCCCGAAGCGUGGCGGCACCUGCCGCCGGUGGUAAAAAAGAUCGGAAGAGCACACGUCU [U7C U8A U11G C12U C13G], for which the “aptazyme ON/OFF ratio” value is 1.13.

In the case of GGGUCGACCAUUCAUAAUCGCGUGGAUAUGGCACGCAAGUUUCUACCGGGCACCGUAAAUGUCCGACUGGAGCCGUUCGGGCGGCUAUAAACAGACCUCAGGCCCGAAGCGUGGCGGCACCUGCCGCCGGUGGUAAAAAAGAUCGGAAGAGCACACGUCU [U7A U8C G9C U10A C12U], the “aptazyme ON/OFF ratio” value is 1.11.

Turning to GGGUCGCACUACAAUAAUCGCGUGGAUAUGGCACGCAAGUUUCUACCGGGCACCGUAAAUGUCCGACUGGAGCCGUUCGGGCGGCUAUAAACAGACCUCAGGCCCGAAGCGUGGCGGCACCUGCCGCCGGUGGUAAAAAAGAUCGGAAGAGCACACGUCU [U7C U8A G9C U11A C13A], the “aptazyme ON/OFF ratio” value was 1.11.

Regarding GGGUCGCACCCGCAUAAUCGCGUGGAUAUGGCACGCAAGUUUCUACCGGGCACCGUAAAUGUCCGACUGGAGCCGUUCGGGCGGCUAUAAACAGACCUCAGGCCCGAAGCGUGGCGGCACCUGCCGCCGGUGGUAAAAAAGAUCGGAAGAGCACACGUCU [U7C U8A G9C U10C U11C C12G], the “aptazyme ON/OFF ratio” value was 1.04.

As for GGGUCGAGCCGGGAUAAUCGCGUGGAUAUGGCACGCAAGUUUCUACCGGGCACCGUAAAUGUCCGACUGGAGCCGUUCGGGCGGCUAUAAACAGACCUCAGGCCCGAAGCGUGGCGGCACCUGCCGCCGGUGGUAAAAAAGAUCGGAAGAGCACACGUCU [U7A U8G G9C U10C U11G C12G C13G], the “aptazyme ON/OFF ratio” value came to 1.18.

In the case of GGGUCGUGCACCAAUAAUCGCGUGGAUAUGGCACGCAAGUUUCUACCGGGCACCGUAAAUGUCCGACUGGAGCCGUUCGGGCGGCUAUAAACAGACCUCAGGCCCGAAGCGUGGCGGCACCUGCCGCCGGUGGUAAAAAAGAUCGGAAGAGCACACGUCU [U8G G9C U10A U11C C13A], the “aptazyme ON/OFF ratio” value is 1.04.

In the case of GGGUCGAGACAGAAUAAUCGCGUGGAUAUGGCACGCAAGUUUCUACCGGGCACCGUAAAUGUCCGACUGGAGCCGUUCGGGCGGCUAUAAACAGACCUCAGGCCCGAAGCGUGGCGGCACCUGCCGCCGGUGGUAAAAAAGAUCGGAAGAGCACACGUCU [U7A U8G G9A U10C U11A C12G C13A], the “aptazyme ON/OFF ratio” value came to 1.04.

With GGGUCGCGGAUACAUAAUCGCGUGGAUAUGGCACGCAAGUUUCUACCGGGCACCGUAAAUGUCCGACUGGAGCCGUUCGGGCGGCUAUAAACAGACCUCAGGCCCGAAGCGUGGCGGCACCUGCCGCCGGUGGUAAAAAAGAUCGGAAGAGCACACGUCU [U7C U8G U10A C12A], the “aptazyme ON/OFF ratio” value was 1.41.

On to GGGUCGAAAUCCAAUAAUCGCGUGGAUAUGGCACGCAAGUUUCUACCGGGCACCGUAAAUGUCCGACUGGAGCCGUUCGGGCGGCUAUAAACAGACCUCAGGCCCGAAGCGUGGCGGCACCUGCCGCCGGUGGUAAAAAAGAUCGGAAGAGCACACGUCU [U7A U8A G9A U11C C13A], for which the “aptazyme ON/OFF ratio” value stood at 1.06.

As for GGGUCGAUUACCUAUAAUCGCGUGGAUAUGGCACGCAAGUUUCUACCGGGCACCGUAAAUGUCCGACUGGAGCCGUUCGGGCGGCUAUAAACAGACCUCAGGCCCGAAGCGUGGCGGCACCUGCCGCCGGUGGUAAAAAAGAUCGGAAGAGCACACGUCU [U7A G9U U10A U11C C13U], the “aptazyme ON/OFF ratio” value came out at 1.02.

Regarding GGGUCGGACACGUAUAAUCGCGUGGAUAUGGCACGCAAGUUUCUACCGGGCACCGUAAAUGUCCGACUGGAGCCGUUCGGGCGGCUAUAAACAGACCUCAGGCCCGAAGCGUGGCGGCACCUGCCGCCGGUGGUAAAAAAGAUCGGAAGAGCACACGUCU [U7G U8A G9C U10A U11C C12G C13U], the “aptazyme ON/OFF ratio” value is 1.04.
